B1: P2D2 (antagonist IL-7R fully human monoclonal antibody, format not stated) (antibody, V domains shown)
VH: QVNLRESGGGLVKPGGSLRLSCAASGFTFDDSVMHWVRQAPGKGLEWLSLVGWDGFFTYYADSVKGRFTISRDNTKNLLYLQMNSLRAEDTAVYYCARQGDYVFNNWGQGTLVTVSS
VL: NFMLTQPHSVSGSPGKTVTISCTRSSGSIDSSYVQWYQQRPGNSPTTVIYEDDQRPSGVPDRFSGSIDSSSNSASLTISGLVTEDEADYYCMQYDSSHLVFGGGTKLTVLC
B2: P2E11 (antagonist IL-7R fully human monoclonal antibody, format not stated) (antibody, V domains shown)
VH: B1 VH with V103M, F104G, N105D, N106Y
VL: B1 VL with M92Q, Q93S, S96F, S97H
B3: C1GM (hIgG1) (antibody)
heavy: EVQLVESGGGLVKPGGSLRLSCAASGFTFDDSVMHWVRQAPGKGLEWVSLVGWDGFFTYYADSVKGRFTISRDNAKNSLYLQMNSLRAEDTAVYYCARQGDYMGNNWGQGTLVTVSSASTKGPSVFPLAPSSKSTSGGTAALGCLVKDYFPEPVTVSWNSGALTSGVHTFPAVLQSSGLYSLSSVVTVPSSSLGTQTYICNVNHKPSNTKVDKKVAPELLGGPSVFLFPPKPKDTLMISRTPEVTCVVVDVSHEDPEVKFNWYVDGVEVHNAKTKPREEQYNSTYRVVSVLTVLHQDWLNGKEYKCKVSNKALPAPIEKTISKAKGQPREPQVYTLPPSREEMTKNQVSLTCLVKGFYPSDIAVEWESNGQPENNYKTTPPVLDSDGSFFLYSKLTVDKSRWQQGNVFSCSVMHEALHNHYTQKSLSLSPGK
light: NFMLTQPHSVSESPGKTVTISCTRSSGSIDSSYVQWYQQRPGSSPTTVIYEDDQRPSGVPDRFSGSIDSSSNSASLTISGLKTEDEADYYCQSYDFHHLVFGGGTKLTVLQPKAAPSVTLFPPSSEELQANKATLVCLISDFYPGAVTVAWKADSSPVKAGVETTTPSKQSNNKYAASSYLSLTPEQWKSHRSYSCQVTHEGSTVEKTVAPTECS
B4: C1GM-2 (hIgG2ΔA) (antibody)
heavy: EVQLVESGGGLVKPGGSLRLSCAASGFTFDDSVMHWVRQAPGKGLEWVSLVGWDGFFTYYADSVKGRFTISRDNAKNSLYLQMNSLRAEDTAVYYCARQGDYMGNNWGQGTLVTVSSASTKGPSVFPLAPCSRSTSESTAALGCLVKDYFPEPVTVSWNSGALTSGVHTFPAVLQSSGLYSLSSVVTVPSSNFGTQTYTCNVDHKPSNTKVDKTVAPPVAGPSVFLFPPKPKDTLMISRTPEVTCVVVDVSHEDPEVQFNWYVDGVEVHNAKTKPREEQFNSTFRVVSVLTVVHQDWLNGKEYKCKVSNKGLPSSIEKTISKTKGQPREPQVYTLPPSREEMTKNQVSLTCLVKGFYPSDIAVEWESNGQPENNYKTTPPMLDSDGSFFLYSKLTVDKSRWQQGNVFSCSVMHEALHNHYTQKSLSLSPGK
light: B3 light
notes: the footnote is printed with **)
B5: P4B3 Fab (Fab, V domains shown)
VH: QVTLKESGGGLVQPGGSLRLSCAASGFTFSNYGMHWVRQAPGKGLEWVSAISGSGGSTYYADSVKGRFTISRDNSKNTVYLQMNSLRDEDTAVYYCARDISGGGMDVWGQGTTVTVSS
VL: NFMLTQPHSVSESPGKTVTISCTGSSGRIASSYVQWYQQRPGSAPTTVIYEDNQRPSGVPDRFSGSIDSSSNSASLTISGLKTEDEADYYCQSYASSSLWVFGGGTQLTVLS
B6: C2M3 (hIgG2ΔA) (antibody, V domains shown)
VH: B1 VH with Q1E, N3Q, R5V, L48V, T75A, L78S, V103M, F104G
VL: NFMLTQPHSVSESPGKTVTISCTRSSGSIDSSYVQWYQQRPGSSPTTVIYEDDQRPSGVPDRFSGSIDSSSNSASLTISGLKTEDEADYYCMQYDFHHLVFGGGTKLTVL
notes: the footnote is printed with **); Only variable domains are tied to C2M3
B7: C2M3 (hIgG1) (antibody, V domains shown)
VH: B1 VH with Q1E, N3Q, R5V, L48V, T75A, L78S, V103M, F104G
VL: B6 VL
notes: Only variable domains are tied to C2M3
B8: HAL403a Fab (Fab, V domains shown)
VH: B1 VH with V103M, F104G
VL: B1 VL with M92Q, Q93S, S96F, S97H
B9: C1GM Fab (Fab, V domains shown)
VH: B1 VH with Q1E, N3Q, R5V, L48V, T75A, L78S, V103M, F104G
VL: B6 VL with M92Q, Q93S
B10: P3A9 Fab (Fab, V domains shown)
VH: B1 VH with F56S, F57A, N105D, N106Y
VL: B1 VL with M92Q, Q93S
B11: P2D2 Fab (Fab, V domains shown)
VH: B1 VH
VL: B1 VL
B12: HAL403b Fab (Fab, V domains shown)
VH: B1 VH with V103M, F104G
VL: B1 VL with S96F, S97H
B13: P2E11 Fab (Fab, V domains shown)
VH: B1 VH with V103M, F104G, N105D, N106Y
VL: B1 VL with M92Q, Q93S, S96F, S97H

Where a chain is given by its changes, count along the chain named.

The target in one assay is T1, human IL-7R on human peripheral blood mononuclear cells (CD4+ gated) (human, UniProt P16871 21-459).
T1 sequence (looked up): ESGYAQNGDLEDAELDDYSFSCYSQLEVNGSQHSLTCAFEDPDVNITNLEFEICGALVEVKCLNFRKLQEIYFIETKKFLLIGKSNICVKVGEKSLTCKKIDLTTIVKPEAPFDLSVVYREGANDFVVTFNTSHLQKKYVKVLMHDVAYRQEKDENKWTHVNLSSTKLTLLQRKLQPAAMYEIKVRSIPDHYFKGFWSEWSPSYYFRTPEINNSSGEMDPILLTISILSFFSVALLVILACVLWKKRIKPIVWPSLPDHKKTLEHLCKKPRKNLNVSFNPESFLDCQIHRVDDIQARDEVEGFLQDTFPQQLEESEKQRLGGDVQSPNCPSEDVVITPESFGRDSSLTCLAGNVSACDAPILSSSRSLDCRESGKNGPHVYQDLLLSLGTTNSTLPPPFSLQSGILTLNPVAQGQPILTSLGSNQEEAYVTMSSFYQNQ
Description: cell-based or functional assay.
Consider B1, for which the “IC50 (read off the curve)” value is roughly 0.1 µg/mL.
Still for that read-out and setting: the figure for B2 is roughly 0.04 µg/mL.

Another assay concerns the target T2, Human IL-7R-hFc antigen (R&D systems) (human, UniProt P16871 21-239).
T2 construct: Bought from R&D Systems; not shown: human Fc (hFc) of the bought fusion
T2 sequence (looked up): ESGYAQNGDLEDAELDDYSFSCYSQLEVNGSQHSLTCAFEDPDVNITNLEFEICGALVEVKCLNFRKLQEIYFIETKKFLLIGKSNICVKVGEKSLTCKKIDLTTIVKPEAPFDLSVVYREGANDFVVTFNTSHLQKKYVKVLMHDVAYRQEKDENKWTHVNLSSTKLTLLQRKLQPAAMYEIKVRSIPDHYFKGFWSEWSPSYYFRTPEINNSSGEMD
Description: SPR (Biacore 2000/3000), IL-7R-hFc captured on anti-human Fc, antibody as analyte. As to the method:
The affinities of antagonist IL-7R antibodies to human IL-7R were measured on a surface plasmon resonance Biacore™ 2000 or 3000 biosensor equipped with a research-grade CM5 sensor chip (Biacore™ AB, Uppsala, Sweden—now GE Healthcare). Goat polyclonal anti-human F(ab′)2 fragments (Fc specific) were amine-coupled at saturating levels onto all four flow cells using a standard N-hydroxysuccinimide/ethyldimethylaminopropyl carbodiimide (NHS/EDC) chemistry in HBS-P running buffer (from Biacore™). The buffer was switched to HBS-P containing 1 mg/mL BSA. Human IL-7R-hFc antigen (R&D systems, Minneapolis, USA) was diluted to about 30 μg/mL and captured for 3 min at 5 μL/min to give levels of about 500-1000 RU per flow cell, leaving one blank to serve as a reference channel. Fab, hIgG1, or hIgG2ΔA formats of the antibodies were injected in duplicates as a 5-membered 3-fold series starting at 2 μM and a 5-membered 4-fold series starting at 0.4 μM for 3 min at 20-50 μL/min. Dissociation was monitored for 5 min. The capture chip was regenerated after the last injection of each titration with two 30 sec pulses of 75 mM phosphoric acid or 10 mM Glycine-HCl pH 1.7. Buffer cycles provided blanks for double-referencing the binding response data, which were then fit globally to a simple reversible binding model using Biaevaluation software v.4.1 to deduce the kinetic association and dissociation rate constants, respectively kₐ and kd. Affinities were deduced from their ratio (KD=kd/kₐ).
With B3, the affinity, expressed as Kd, was 0.286 nM; the koff was determined as 0.000405 s⁻¹; the kon turned out to be 1.42e+06 M⁻¹ s⁻¹.
The molecule B4 displayed a Kd of 0.27 nM, a koff of 0.000407 s⁻¹ and a kon of 1.51e+06 M⁻¹ s⁻¹.
B5 registered a Kd of 225 nM, a koff of 0.00351 s⁻¹ and a kon of 15600 M⁻¹ s⁻¹.
The like results for B6 were, in that order, 0.195 nM, 0.000302 s⁻¹ and 1.55e+06 M⁻¹ s⁻¹.
The corresponding values for B7 are 0.218 nM, 0.000307 s⁻¹ and 1.41e+06 M⁻¹ s⁻¹.
The corresponding values for B8 are 0.06 nM, 0.000286 s⁻¹ and 5.07e+06 M⁻¹ s⁻¹.
In the case of B9, the Kd is 0.04 nM, the koff came out at 0.000171 s⁻¹ and the association rate constant (kon) was 4.85e+06 M⁻¹ s⁻¹.
For the molecule B10, binding was put at a Kd of 204 nM, the koff turned out to be 0.0114 s⁻¹ and the kon amounted to 56000 M⁻¹ s⁻¹.
With B11, the equilibrium dissociation constant (Kd) was 12 nM, the koff was 0.000882 s⁻¹ and the kon stood at 71700 M⁻¹ s⁻¹.
As for B12, the Kd is 0.06 nM, the dissociation rate constant (koff) stood at 8.08e-05 s⁻¹ and the kon was determined as 1.39e+06 M⁻¹ s⁻¹.
The corresponding values for B13 are 3 nM, 0.000497 s⁻¹ and 155000 M⁻¹ s⁻¹.

Broadly, the Kd is a measure of binding affinity in units of concentration. As usually defined, the koff is the rate constant with which the complex falls apart. Read a low koff as a long-lived complex. As a reminder, the kon is the second-order rate constant of association.

For the origin of these results see patent publication US20180327503A1 (RINAT NEUROSCIENCE, published 2018).
